Measurements published in the supplement of paper PMC10065799, “High-throughput profiling of sequence recognition by tyrosine kinases and SH2 domains using bacterial peptide display” (eLife, 2023).

Key:
[1] = molecular target: Fyn (UniProt P06241); test: phosphorylation enrichment, bacterial display (enrichment ratio); higher = better substrate or ligand; peptides without Tyr show the background
[2] = molecular target: EPHB2 (UniProt P29323); test: as above
[3] = molecular target: Jak2 (UniProt O60674); test: as above
[4] = system: c-Abl (mouse); test: as above
[5] = system: Fer (mouse); test: as above
[6] = molecular target: MERTK (UniProt Q12866); test: as above
[7] = molecular target: FGFR1 (UniProt P11362); test: as above
[8] = system: AncSZ; test: as above
[9] = molecular target: Hck (UniProt P08631); test: as above
[10] = molecular target: Fes (UniProt P07332); test: as above
[11] = molecular target: EPHB1 (UniProt P54762); test: as above
[12] = molecular target: FGFR3 (UniProt P22607); test: as above
[13] = system: c-Src; test: as above
[14] = molecular target: SHP2-C SH2; test: SH2 binding enrichment of the phosphorylated peptide, bacterial display (enrichment ratio); higher = better substrate or ligand; peptides without Tyr show the background
[15] = molecular target: c-Src SH2; test: as above
[16] = molecular target: Grb2 SH2 (UniProt P62993); test: as above
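Wherever SH2 binding enrichment of the phosphorylated peptide, bacterial display is given: peptide library displayed on the E. coli surface as eCPX fusions, selected cells deep-sequenced, score is each peptide's frequency after selection divided by its frequency in the input.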
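Wherever phosphorylation enrichment, bacterial display is given: 11-residue human phosphosite peptides and single-mutation variants displayed on the E. coli surface, counted by deep sequencing, each peptide's frequency after selection divided by its frequency in the unselected input library; frequency after pTyr selection over input frequency; kinase dosed for 20-30% of maximal phosphorylation in three min.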

Chain of EPHB2 (P29323 whole entry, looked up): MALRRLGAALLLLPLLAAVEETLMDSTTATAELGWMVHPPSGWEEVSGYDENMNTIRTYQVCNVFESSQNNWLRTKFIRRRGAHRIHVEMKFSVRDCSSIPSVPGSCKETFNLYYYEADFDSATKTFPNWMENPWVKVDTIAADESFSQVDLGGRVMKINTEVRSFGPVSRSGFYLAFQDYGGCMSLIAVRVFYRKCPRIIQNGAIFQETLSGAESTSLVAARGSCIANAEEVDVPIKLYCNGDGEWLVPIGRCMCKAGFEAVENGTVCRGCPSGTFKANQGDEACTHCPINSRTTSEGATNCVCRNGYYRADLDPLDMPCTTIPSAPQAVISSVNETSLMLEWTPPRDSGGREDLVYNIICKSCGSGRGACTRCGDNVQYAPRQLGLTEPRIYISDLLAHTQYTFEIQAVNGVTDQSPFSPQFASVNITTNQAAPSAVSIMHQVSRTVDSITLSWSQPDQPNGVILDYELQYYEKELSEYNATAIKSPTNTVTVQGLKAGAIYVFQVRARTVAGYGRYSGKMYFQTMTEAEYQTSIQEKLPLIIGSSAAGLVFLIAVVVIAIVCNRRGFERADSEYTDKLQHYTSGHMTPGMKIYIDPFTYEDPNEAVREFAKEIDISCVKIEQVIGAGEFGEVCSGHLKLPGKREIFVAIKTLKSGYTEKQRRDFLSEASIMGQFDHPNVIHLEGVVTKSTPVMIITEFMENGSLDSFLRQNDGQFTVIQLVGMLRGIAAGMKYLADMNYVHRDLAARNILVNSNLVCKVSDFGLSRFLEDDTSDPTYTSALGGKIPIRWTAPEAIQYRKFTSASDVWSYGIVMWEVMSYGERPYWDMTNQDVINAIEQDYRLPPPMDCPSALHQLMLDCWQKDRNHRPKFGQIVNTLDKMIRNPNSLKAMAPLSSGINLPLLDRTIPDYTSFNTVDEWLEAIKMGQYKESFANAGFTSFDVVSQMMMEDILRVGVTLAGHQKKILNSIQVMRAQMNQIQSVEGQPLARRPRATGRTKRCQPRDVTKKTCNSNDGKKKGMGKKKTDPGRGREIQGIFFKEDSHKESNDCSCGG
Chain of FGFR3 (P22607 whole entry, looked up): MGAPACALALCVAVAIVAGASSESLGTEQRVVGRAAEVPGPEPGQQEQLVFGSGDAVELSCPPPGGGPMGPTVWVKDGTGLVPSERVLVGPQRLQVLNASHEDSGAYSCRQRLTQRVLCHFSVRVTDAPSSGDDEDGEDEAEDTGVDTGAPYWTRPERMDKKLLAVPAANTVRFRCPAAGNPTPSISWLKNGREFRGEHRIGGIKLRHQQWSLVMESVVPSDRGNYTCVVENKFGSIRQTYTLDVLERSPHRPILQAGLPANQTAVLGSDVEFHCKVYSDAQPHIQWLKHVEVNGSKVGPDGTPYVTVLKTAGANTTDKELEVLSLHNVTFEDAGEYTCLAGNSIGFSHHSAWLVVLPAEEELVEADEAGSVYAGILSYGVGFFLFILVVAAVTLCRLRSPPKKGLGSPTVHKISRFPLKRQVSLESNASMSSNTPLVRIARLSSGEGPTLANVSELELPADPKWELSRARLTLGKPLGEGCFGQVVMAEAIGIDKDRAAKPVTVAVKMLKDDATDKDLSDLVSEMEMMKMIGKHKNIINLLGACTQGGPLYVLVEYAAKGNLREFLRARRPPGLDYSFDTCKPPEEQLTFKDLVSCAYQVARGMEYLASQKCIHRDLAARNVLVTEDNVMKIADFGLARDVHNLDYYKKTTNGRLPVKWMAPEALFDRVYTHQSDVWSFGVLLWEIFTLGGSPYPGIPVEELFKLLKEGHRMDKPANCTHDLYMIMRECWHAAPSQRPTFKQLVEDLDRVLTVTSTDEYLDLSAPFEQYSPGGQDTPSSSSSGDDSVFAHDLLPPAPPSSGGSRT
Chain of FGFR1 (P11362 whole entry, looked up): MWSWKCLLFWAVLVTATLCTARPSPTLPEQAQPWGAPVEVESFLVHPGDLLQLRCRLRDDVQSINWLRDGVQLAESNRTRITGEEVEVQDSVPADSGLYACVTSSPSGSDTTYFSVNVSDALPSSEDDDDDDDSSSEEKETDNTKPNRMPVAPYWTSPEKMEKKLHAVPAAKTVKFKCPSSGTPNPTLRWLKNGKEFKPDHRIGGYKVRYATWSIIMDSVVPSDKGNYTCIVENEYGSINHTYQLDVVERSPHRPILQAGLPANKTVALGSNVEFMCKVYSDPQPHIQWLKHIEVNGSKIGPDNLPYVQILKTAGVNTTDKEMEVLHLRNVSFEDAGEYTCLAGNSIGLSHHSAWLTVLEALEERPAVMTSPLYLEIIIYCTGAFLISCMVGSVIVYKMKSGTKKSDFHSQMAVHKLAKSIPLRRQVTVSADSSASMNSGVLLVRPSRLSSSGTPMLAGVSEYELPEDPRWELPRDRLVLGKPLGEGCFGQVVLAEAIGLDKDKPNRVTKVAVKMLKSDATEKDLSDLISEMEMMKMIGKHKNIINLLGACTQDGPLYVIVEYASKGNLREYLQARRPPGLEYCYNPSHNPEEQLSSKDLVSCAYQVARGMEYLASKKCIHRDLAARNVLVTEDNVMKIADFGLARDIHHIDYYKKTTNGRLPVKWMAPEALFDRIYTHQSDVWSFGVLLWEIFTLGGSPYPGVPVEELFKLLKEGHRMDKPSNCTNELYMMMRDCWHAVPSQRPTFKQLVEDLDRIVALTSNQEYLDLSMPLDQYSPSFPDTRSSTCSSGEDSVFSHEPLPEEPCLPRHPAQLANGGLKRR
Chain of Jak2 (O60674 whole entry, looked up): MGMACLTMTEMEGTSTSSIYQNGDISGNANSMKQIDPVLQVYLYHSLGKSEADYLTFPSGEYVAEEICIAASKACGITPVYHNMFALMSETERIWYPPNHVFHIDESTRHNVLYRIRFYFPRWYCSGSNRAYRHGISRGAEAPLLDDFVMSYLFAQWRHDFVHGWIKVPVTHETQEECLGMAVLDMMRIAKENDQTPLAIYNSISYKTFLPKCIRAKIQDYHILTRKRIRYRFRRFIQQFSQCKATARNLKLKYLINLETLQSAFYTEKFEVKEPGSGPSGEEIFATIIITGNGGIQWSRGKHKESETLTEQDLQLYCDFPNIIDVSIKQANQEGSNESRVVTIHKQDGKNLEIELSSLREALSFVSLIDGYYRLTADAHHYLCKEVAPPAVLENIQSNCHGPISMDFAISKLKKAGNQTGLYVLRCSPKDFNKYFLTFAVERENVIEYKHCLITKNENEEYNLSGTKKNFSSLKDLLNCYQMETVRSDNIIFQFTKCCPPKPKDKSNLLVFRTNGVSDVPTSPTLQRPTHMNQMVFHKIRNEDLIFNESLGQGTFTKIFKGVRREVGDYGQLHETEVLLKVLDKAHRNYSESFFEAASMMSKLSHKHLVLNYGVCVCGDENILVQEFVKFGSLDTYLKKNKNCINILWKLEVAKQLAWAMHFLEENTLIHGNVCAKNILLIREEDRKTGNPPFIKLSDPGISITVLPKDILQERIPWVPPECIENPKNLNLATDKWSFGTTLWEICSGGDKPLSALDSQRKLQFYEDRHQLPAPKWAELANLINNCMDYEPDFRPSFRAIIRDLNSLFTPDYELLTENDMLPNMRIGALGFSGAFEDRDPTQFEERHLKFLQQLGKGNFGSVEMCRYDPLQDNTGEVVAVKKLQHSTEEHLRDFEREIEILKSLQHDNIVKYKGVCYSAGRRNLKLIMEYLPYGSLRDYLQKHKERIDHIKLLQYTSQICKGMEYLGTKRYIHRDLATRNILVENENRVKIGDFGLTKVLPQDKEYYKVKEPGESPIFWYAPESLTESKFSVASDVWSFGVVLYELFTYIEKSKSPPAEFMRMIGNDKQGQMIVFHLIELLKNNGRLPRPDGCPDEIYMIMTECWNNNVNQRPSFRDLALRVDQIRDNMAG
Chain of Grb2 SH2 (P62993 whole entry, looked up, the tested form may be a part): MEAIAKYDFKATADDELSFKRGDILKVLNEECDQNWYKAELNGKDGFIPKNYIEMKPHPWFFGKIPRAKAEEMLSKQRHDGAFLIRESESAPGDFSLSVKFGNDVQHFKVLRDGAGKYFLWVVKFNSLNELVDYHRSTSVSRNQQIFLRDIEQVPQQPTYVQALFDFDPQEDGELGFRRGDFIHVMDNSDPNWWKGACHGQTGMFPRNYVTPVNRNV
Chain of Fes (P07332 whole entry, looked up): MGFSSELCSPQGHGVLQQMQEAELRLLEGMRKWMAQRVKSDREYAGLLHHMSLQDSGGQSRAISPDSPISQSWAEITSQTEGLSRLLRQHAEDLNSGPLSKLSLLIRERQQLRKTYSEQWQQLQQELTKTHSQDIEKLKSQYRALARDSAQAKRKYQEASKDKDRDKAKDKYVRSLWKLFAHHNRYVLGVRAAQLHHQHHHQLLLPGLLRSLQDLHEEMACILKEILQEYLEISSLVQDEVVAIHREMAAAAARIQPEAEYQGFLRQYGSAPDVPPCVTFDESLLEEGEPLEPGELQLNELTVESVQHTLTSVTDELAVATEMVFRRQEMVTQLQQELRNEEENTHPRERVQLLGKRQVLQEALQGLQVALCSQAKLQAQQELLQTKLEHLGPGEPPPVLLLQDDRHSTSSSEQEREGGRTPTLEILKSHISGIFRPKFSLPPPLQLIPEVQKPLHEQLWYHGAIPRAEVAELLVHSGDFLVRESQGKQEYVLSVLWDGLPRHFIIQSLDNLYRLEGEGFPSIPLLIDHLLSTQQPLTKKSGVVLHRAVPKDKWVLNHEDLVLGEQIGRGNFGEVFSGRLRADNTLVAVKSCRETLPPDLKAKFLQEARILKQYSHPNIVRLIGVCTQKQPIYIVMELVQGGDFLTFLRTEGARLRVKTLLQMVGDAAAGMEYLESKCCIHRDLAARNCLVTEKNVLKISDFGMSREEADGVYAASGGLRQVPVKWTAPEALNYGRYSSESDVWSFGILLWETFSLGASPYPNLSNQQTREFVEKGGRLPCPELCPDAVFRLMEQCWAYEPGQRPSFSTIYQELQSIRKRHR

Sequence	phosphorylation enrichment [1]	phosphorylation enrichment [2]	phosphorylation enrichment [3]	phosphorylation enrichment [4]	phosphorylation enrichment [5]	phosphorylation enrichment [6]	phosphorylation enrichment [7]	phosphorylation enrichment [8]	phosphorylation enrichment [9]	phosphorylation enrichment [10]	phosphorylation enrichment [11]	phosphorylation enrichment [12]	phosphorylation enrichment [13]	SH2 binding enrichment [14]	SH2 binding enrichment [15]	SH2 binding enrichment [16]
KMATAYIRSMS [BCO1_Y264_R267S]	0.417	0.374	0.518	0.516	0.337	0.396	0.397	0.564	0.388	0.6	0.409	0.369	0.385	0.59	0.464	1.08
IPGGIYDADLN [CST4_Y35]	1.76	0.649	1.4	1.14	0.611	0.787	0.746	1.24	1.65	1.32	0.582	0.836	1.62	0.876	0.823	0.991
TEAEPYYRSLR [NPHS1_Y1138]	0.373	0.425	0.809	0.722	0.425	0.371	0.458	0.7	0.503	0.824	0.422	0.609	0.512	0.864	0.707	0.961
FMYKVYSDPQP [FGFR1_Y280_C277Y]	0.526	0.799	0.819	0.521	0.532	0.5	0.461	1.03	0.569	1.16	0.778	0.642	0.495	0.854	0.768	0.8
RKGGSYSQAAS [HLA-A_Y344_T345S]	0.537	0.491	0.401	0.738	0.294	0.656	0.523	0.599	0.38	0.625	0.498	0.567	0.741	0.836	0.542	0.95
DVLVEYQGEGR [GNS_Y416]	0.504	0.533	0.934	0.709	0.43	0.414	0.545	0.945	0.496	1.08	0.427	0.599	0.464	0.818	0.606	0.907
FKEQGYHRLPP [RIN1_Y681_YF]	0.457	0.298	0.877	0.345	0.363	0.377	0.58	0.441	0.456	0.679	0.561	0.528	0.37	0.77	0.742	0.94
NNDLCYWVLEL [IARS1_Y434_P437L]	5.45	1.05	3.65	1.31	1.33	2.33	7.77	2.47	4.01	1.88	1.37	7.8	5.34	0.518	0.55	0.664
ASGKFYAMKIL [AKT3_Y174_YF]	0.529	0.625	0.801	0.675	0.543	0.509	0.609	0.858	0.53	1.07	0.519	0.589	0.426	1.05	0.763	1
KGEPQYSSHSS [SIPA1L3_Y1265]	0.554	0.317	0.57	0.498	0.45	0.429	0.298	0.515	0.295	0.547	0.327	0.421	0.496	0.408	0.411	0.853
FSLIHYAGIVD [MYH7_Y582]	0.408	0.648	0.765	0.609	0.387	0.339	0.405	0.997	0.458	0.963	0.503	0.714	0.343	19	5.22	1.45
YQQLFYLLQIN [IQGAP2_Y890_T894I]	0.625	0.829	1.67	1.3	0.751	1.31	2.23	1.57	0.911	1.81	1.21	2.15	1	1.28	0.91	1.31
KKHIPYREHKS [CSNK1G1_Y205]	0.888	1.25	3.87	3.25	1.81	1.03	1.31	1.76	1.19	2.94	1.84	3.18	1.46	2.1	1.88	1.99
MAYDRYAAICS [OR8H2_Y123_H120Y]	0.526	0.828	1.04	0.839	0.597	0.835	0.526	0.94	0.76	1.35	0.699	0.687	0.661	0.956	2.79	0.852
AGLEDYDRLRP [RAC3_Y64_Q61L]	0.544	0.791	0.931	0.657	0.62	0.402	0.836	1.13	0.894	0.933	0.505	0.744	0.485	0.888	0.547	0.732
WIPIQYPIISE [NOG_Y222]	0.427	0.439	0.622	0.59	0.508	0.343	0.394	0.782	0.439	0.807	0.421	0.571	0.354	1.35	0.807	1.14
